In patent US20250076311A1 (Chugai, published 2025):
Substitutions are numbered along the chain they refer to. Names may count otherwise. Values belong to the binder of their own block, whether it stands above or below them.

Assays:
[1] = biological target: T1, cynomolgus monkey FcγRIIIaS extracellular domain, His-tagged (cynomolgus monkey, UniProt A3RFZ7 21-206 (rhesus entry)); assay: SPR (BIACORE), antibody captured on chip, FcγR as analyte, 25 C; KD of M103205H795-SG1 divided by KD of the variant
T1 construct: also called cyno FcγRIIIaS; cynoFcγRIIIaS; not shown: His-tag added to the C-terminus
Protocol: (§1) The kinetic analysis of interactions between these antibodies and FcγR was carried out using BIACORE® T200 or BIACORE® 4000 (GE Healthcare). HBS-EP+ (GE Healthcare) was used as the running buffer, and the measurement temperature was set to 25° C. […] After the measurement, the antibody captured on the chip was washed off by allowing reaction with 10 mM glycine-HCl, pH1.5 and 25 mM NaOH so that the chip was regenerated and used repeatedly. The sensorgrams obtained as measurement results were analyzed by the 1:1 Langmuir binding model using the BIACORE® Evaluation Software to calculate the binding rate constant ka (L/mol/s) and dissociation rate constant kd (1/s), and the dissociation constant KD (mol/L) was calculated from these values. […] Regarding such interactions, KD values were calculated using the following 1:1 binding model described in BIACORE® T100 Software Handbook BR1006-48 Edition AE.

[2] = biological target: T2, human FcγRIIb extracellular domain, His-tagged (human, UniProt P31994 43-217); assay: SPR, 25C, antibody captured, FcγR as analyte
T2 construct: also called FcgRIIb (human)
T2 sequence: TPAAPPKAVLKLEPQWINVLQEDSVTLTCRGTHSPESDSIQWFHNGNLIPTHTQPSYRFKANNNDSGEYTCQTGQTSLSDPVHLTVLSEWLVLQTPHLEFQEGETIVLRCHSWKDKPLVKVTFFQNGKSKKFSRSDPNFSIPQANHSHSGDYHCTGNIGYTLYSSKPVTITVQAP
Protocol: as §1

[3] = biological target: T3, cynomolgus monkey FcγRIIa1 extracellular domain with C-terminal His-tag (cynomolgus monkey); assay: SPR (BIACORE), antibody captured, FcgR analyte
T3 construct: also called cyno FcgRIIa1; cynoFcγRIIa1; not shown: His-tag added to the C-terminus
T3 chain: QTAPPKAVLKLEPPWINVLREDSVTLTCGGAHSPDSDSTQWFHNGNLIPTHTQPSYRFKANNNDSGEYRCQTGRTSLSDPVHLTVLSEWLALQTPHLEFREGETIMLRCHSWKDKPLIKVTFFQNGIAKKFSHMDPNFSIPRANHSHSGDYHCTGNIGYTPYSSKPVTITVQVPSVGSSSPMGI

[4] = biological target: T4, cynomolgus monkey FcγRIIa2 extracellular domain with C-terminal His-tag (cynomolgus monkey); assay: SPR (BIACORE), antibody captured, FcgR analyte
T4 construct: also called cyno FcgRIIa2; cynoFcγRIIa2; not shown: His-tag added to the C-terminus
T4 chain: T3 chain with P95T, T121A, I127K, A128S, K130N, D135N, R142Q

[5] = biological target: T5, cynomolgus monkey FcγRIIa3 extracellular domain with C-terminal His-tag (cynomolgus monkey); assay: SPR (BIACORE), antibody captured, FcgR analyte
T5 construct: also called cyno FcgRIIa3; cynoFcγRIIa3; not shown: His-tag added to the C-terminus
T5 chain: T3 chain with P95T, T121A, A128S, H133P, D135N

[6] = biological target: T6, cynomolgus monkey FcγRIIb extracellular domain with C-terminal His-tag (cynomolgus monkey); assay: SPR (BIACORE), antibody captured, FcgR analyte
T6 construct: also called cyno FcgRIIb; cynoFcγRIIb; not shown: His-tag added to the C-terminus
T6 chain: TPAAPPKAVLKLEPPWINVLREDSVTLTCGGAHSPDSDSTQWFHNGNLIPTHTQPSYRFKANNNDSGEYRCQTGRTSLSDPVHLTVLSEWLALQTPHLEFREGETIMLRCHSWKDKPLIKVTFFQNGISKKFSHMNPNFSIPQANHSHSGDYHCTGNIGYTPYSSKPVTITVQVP

[7] = biological target: T7, cynomolgus monkey FcγRIIIaS extracellular domain with C-terminal His-tag (cynomolgus monkey, UniProt A3RFZ7 21-206 (rhesus entry)); assay: SPR (BIACORE), antibody captured, FcgR analyte
T7 construct: also called cyno FcgRIIIaS; cynoFcγRIIIaS; not shown: His-tag added to the C-terminus
T7 sequence (A3RFZ7 21-206): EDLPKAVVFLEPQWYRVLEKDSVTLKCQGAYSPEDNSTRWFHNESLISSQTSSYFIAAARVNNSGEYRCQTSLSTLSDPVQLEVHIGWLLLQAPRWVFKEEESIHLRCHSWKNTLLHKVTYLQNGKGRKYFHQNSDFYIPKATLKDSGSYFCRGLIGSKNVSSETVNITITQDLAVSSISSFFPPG

[8] = biological target: T8, human FcγRIIaR extracellular domain with C-terminal His-tag (human, UniProt P12318 34-217); assay: SPR (BIACORE), antibody captured, FcgR analyte
T8 construct: also called human FcgRIIaR; FcγRIIa type R; not shown: His-tag added to the C-terminus
T8 chain: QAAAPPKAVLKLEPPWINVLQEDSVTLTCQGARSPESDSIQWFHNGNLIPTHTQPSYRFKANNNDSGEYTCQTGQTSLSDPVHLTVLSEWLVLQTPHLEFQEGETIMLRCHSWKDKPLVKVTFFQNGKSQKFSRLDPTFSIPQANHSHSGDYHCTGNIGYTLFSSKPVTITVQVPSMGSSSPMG

[9] = biological target: T9, human FcγRIIb extracellular domain with C-terminal His-tag (human, UniProt P31994 43-217); assay: SPR (BIACORE), antibody captured, FcgR analyte
T9 construct: also called human FcgRIIb; not shown: His-tag added to the C-terminus
T9 sequence: T2 sequence

[10] = biological target: T10, human FcγRIIIaV extracellular domain with C-terminal His-tag (human, UniProt P08637 17-208); assay: SPR (BIACORE), antibody captured, FcgR analyte
T10 construct: also called human FcgRIIIaV; not shown: His-tag added to the C-terminus
T10 sequence (P08637 17-208 F176V): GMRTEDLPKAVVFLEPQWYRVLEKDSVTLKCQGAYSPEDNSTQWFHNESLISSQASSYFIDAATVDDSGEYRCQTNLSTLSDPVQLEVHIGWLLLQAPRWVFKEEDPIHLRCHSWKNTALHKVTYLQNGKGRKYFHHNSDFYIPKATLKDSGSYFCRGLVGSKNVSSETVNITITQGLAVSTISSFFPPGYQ

[11] = biological target: T7, cynomolgus monkey FcγRIIIaS …; assay: SPR (BIACORE); KD of SG1 / KD of variant
[12] = biological target: T11, human FcγRIIaH extracellular domain with C-terminal His-tag (human, UniProt P12318 34-217); assay: SPR (BIACORE); KD of SG1 / KD of variant
T11 construct: also called human FcgRIIaH; FcγRIIa type H; not shown: His-tag added to the C-terminus
T11 sequence: T8 chain with R134H

KD fold (SG1 = 1) [1]: 3.27 fold
B1: M103205H795-MY065/M103202L889-SK1 (antibody, human IgG1, kappa, name in EU numbering)
heavy: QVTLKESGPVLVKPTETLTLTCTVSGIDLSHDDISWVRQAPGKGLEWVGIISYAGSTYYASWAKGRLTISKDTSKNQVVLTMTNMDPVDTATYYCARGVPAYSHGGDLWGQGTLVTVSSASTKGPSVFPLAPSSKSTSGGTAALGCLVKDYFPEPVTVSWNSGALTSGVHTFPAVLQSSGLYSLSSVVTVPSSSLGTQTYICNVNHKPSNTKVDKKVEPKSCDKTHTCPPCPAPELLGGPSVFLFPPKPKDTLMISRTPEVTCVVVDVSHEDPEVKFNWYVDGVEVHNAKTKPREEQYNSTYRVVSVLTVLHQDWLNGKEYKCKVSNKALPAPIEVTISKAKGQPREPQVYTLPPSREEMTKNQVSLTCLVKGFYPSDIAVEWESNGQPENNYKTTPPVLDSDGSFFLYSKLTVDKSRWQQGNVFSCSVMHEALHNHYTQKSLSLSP
light: DIVMTQSPATLSLSPGERATLSCTSSQSVYHANWLSWFQQKPGQPPKLLIYWASTLAYGVPSRFSGSGSGTDFTLTISSLQPEDAATYYCAGGYGGGRYAFGQGTKVEIKRTVAAPSVFIFPPSDEQLKSGTASVVCLLNNFYPREAKVQWKVDNALQSGNSQESVTEQDSKDSTYSLSSTLTLSKADYEKHKVYACEVTHQGLSSPVTKSFNRGEC

fold enhanced affinity compared to SG1 [2]: 10 fold
B2: MS103240H795-SG1074/M103202L1045-SK1 (antibody, name in EU numbering)
heavy: QVQLVESGGGLVQPGGSLRLSCAVSGIDLSHDDISWVRQAPGKGLEWVSIISYAGSTYYASWAKGRLTISKDTSKNQVVLTMTNMDPVDTATYYCARGVPAYSHGGDLWGQGTLVTVSSASTKGPSVFPLAPSSKSTSGGTAALGCLVKDYFPEPVTVSWNSGALTSGVHTFPAVLQSSGLYSLSSVVTVPSSSLGTQTYICNVNHKPSNTKVDKKVEPKSCDKTHTCPPCPAPELLNGPSVFLFPPKPKDTLMISRTPEVTCVVVDVSDEDPEVKFNWYVDGVEVHNAKTKPREELYNSTYRVVSVLTVLHRDWLNGKEYKCKVSNTALPKPIEKTISKAKGQRREPQVYTLPPSREEMTKNQVSLTCLVKGFYPSDIAVEWESNGQPENNYKTTPPVLDSDGSFFLYSKLTVDKSRWQQGNVFSCSVLHEALHAHTTRKELSLSP
light: B1 light with S25T, A32E
notes: also called MS1032LO19-SG1074

KD fold (SG1 = 1) [1]: 2.25 fold
B3: M103205H795-MY066/M103202L889-SK1 (antibody, human IgG1, kappa, name in EU numbering)
heavy: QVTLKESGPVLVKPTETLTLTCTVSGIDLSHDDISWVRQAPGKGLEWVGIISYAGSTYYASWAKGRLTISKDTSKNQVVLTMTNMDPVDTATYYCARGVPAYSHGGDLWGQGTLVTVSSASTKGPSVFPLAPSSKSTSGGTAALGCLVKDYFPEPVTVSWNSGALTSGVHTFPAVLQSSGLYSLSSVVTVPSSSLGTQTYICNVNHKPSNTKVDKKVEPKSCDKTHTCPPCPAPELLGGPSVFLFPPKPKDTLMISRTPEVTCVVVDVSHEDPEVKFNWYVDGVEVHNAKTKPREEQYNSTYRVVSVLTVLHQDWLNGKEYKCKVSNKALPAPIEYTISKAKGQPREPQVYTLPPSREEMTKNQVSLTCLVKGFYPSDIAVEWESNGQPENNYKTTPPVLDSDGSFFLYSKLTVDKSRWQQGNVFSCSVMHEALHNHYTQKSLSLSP
light: B1 light

fold enhanced affinity compared to SG1 [2]: 10 fold
B4: MS103205H795-SG1012/M103202L889-SK1 (antibody, human IgG1, kappa)
heavy: QVTLKESGPVLVKPTETLTLTCTVSGIDLSHDDISWVRQAPGKGLEWVGIISYAGSTYYASWAKGRLTISKDTSKNQVVLTMTNMDPVDTATYYCARGVPAYSHGGDLWGQGTLVTVSSASTKGPSVFPLAPSSKSTSGGTAALGCLVKDYFPEPVTVSWNSGALTSGVHTFPAVLQSSGLYSLSSVVTVPSSSLGTQTYICNVNHKPSNTKVDKKVEPKSCDKTHTCPPCPAPELLNGPSVFLFPPKPKDTLMISRTPEVTCVVVDVSEEDPEVKFNWYVDGVEVHNAKTKPREEQYNSTYRVVSVLTVLHQDWLNGKEYKCKVSNKALPKPIEKTISKAKGQPREPQVYTLPPSREEMTKNQVSLTCLVKGFYPSDIAVEWESNGQPENNYKTTPMVLDSDGSFFLYSKLTVDKSRWQQGNVFSCSVMHEALHAHYTQKSLSLSP
light: B1 light
notes: also called MS1032LO06-SG1012

Kd [3]: 1900 nM
Kd [4]: 2400 nM
Kd [5]: 10000 nM
Kd [6]: 980 nM
Kd [7]: 3600 nM
Kd [8]: 2500 nM
Kd [9]: 1200 nM
Kd [10]: 9100 nM
B5: M103205H795-MY145/M103202L889-SK1 (antibody, human IgG1, kappa, name in EU numbering)
heavy: B4 heavy with K332A, P333E, A436N
light: B1 light
notes: Fc variant of MS1032LO06-SG1; positions in EU numbering

Kd [4]: 580 nM
Kd [7]: 3000 nM
Kd [8]: 1300 nM
Kd [9]: 820 nM
Kd [10]: 48000 nM
B6: M103205H795-MY211/M103202L889-SK1 (antibody, human IgG1, kappa, name in EU numbering)
heavy: B4 heavy with S241V, E270D, K328T, M398P, A436N
light: B1 light
notes: as for B5

Kd [4]: 330 nM
Kd [7]: 2700 nM
Kd [10]: 6900 nM
B7: M103205H795-MY198/M103202L889-SK1 (antibody, human IgG1, kappa, name in EU numbering)
heavy: B4 heavy with S241V, E270D, A436N
light: B1 light
notes: as for B5

KD fold (SG1 = 1) [11]: 0.36 fold
KD fold (SG1 = 1) [12]: 0.5 fold
Kd [7]: 1000 nM
Kd [8]: 1000 nM
Kd [10]: 7900 nM
B8: M103205H795-MY117/M103202L889-SK1 (antibody)
heavy: B4 heavy with L236W, S269A, K332A, A436N
light: B1 light
notes: Fc variant of MS1032LO06-SG1; EU numbering

KD fold (SG1 = 1) [1]: 3.6 fold
B9: M103205H795-MY015/M103202L889-SK1 (antibody, human IgG1, kappa, name in EU numbering)
heavy: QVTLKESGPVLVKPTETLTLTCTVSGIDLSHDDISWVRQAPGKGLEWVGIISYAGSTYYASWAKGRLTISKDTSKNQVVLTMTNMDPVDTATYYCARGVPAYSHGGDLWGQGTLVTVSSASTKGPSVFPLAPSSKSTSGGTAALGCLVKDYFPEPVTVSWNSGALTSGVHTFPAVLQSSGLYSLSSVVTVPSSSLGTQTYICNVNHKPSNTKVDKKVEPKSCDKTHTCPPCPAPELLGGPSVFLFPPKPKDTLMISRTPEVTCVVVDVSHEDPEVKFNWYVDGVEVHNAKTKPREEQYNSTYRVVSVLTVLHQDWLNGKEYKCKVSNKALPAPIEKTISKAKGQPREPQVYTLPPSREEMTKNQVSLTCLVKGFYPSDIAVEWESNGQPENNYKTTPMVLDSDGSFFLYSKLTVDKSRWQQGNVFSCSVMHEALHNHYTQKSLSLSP
light: B1 light

fold enhanced affinity compared to SG1 [2]: 10 fold
B10: MS103205H795-SG1016/M103202L889-SK1 (antibody, human IgG1, kappa)
heavy: B4 heavy with Q313R, D401K
light: B1 light
notes: Built from the text: Q311R/D399K introduced into SG1012; also called MS1032LO06-SG1016

KD fold (SG1 = 1) [1]: 3.6 fold
B11: M103205H795-MY067/M103202L889-SK1 (antibody, human IgG1, kappa, name in EU numbering)
heavy: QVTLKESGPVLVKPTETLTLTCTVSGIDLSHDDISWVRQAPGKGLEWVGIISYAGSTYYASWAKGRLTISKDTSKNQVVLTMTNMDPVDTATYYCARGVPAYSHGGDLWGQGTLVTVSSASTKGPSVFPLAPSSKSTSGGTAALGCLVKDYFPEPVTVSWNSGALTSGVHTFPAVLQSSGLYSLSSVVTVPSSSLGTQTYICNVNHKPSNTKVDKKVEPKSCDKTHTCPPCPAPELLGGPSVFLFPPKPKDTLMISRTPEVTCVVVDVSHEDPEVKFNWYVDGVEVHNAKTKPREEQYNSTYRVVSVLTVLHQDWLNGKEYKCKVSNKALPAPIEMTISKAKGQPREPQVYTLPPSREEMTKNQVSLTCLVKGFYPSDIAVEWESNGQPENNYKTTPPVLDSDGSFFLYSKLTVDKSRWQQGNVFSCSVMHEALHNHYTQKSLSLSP
light: B1 light

fold enhanced affinity compared to SG1 [2]: 10 fold
B12: MS103240H795-SG1080/M103202L1045-SK1 (antibody, name in EU numbering)
heavy: B2 heavy with L430M, T438Y
light: B1 light with S25T, A32E
notes: Built from the text: MY209 plus Q311R/P343R and N434A/Q438R/S440E; also called MS1032LO19-SG1080
